According to PMC9913320, “Development of ^99mTc-Hynic-Adh-1 Molecular Probe Specifically Targeting N-Cadherin and Its Preliminary Experimental Study in Monitoring Drug Resistance of Non-Small-Cell Lung Cancer” (Cancers, 2023):

How the values were obtained:
[1] = Pharmacokinetic studies (blood radioactivity, PK solver); type: in vivo; settings: C57/BL6 mice, i.v.
Protocol: For the pharmacokinetic studies, four C57/BL6 mice weighing 18–20 g were administrated with ^99mTc-HYNIC-ADH1 (0.1 mL, 0.74 MBq) by i.v. injection into the tail vein. An array of blood samples was acquired and weighed by pinching the tail with a syringe at 2, 5, 15, 20, 30, 45, 60, 90, 120 and 240 min post-injection (p.i.). Radioactivity was calculated as the % of dose per g of tissue per body weight (%ID/g) expressed over time. […] Pharmacokinetics was assayed using PK solver 2.0.

[2] = Biodistribution in xenograft-bearing nude mice, organs; type: in vivo, BALB/c nude mice; settings: mouse, iv, 0.74 MBq, i.v.; for tissue uptake at 0.5 h: 30 min; for tissue uptake at 1 h: 60 min; for tissue uptake at 2 h: 120 min; for tissue uptake at 4 h: 240 min
Protocol: (§1) All animal research was performed in accordance with the Zhejiang University Institutional Animal Care and Use Committee guidelines. PC9 and PC9GR cells (2 × 10^6 cells per mice) were injected subcutaneously into the flanks of 2- to 4-week old BALB/c nude mice (left: PC9GR, right: PC9). The cells were allowed to grow 3–5 weeks until tumors were 1 ± 0.5 cm^3 in volume. Normal C57/BL6 mice (aged 6 to 8 wks old) were obtained from the Animal Center of the First Affiliated Hospital of Zhejiang University. All animals were maintained with free access to food and water and used a standard diet, bedding and environment.
(§2) The radiotracer (0.1 mL, 0.74 MBq) was injected intravenously into normal C57/BL6 mice and xenograft models as previously described (n = 4 per group per time) via the tail vein. After different time intervals (30, 60, 120 and 240 min), the mice were sacrificed by cervical dislocation, and their blood, tumors and major organs (brain, heart, lung, liver, spleen, kidney, stomach, intestine, muscle, bone and skin) were harvested and weighed. The radioactivity of each sample was measured with a γ-counter. Values are shown as the percentage of the injected dose per gram (%ID/g), which corrected for background and decay to maintain consistency.

[3] = Biodistribution in xenograft-bearing nude mice, PC9GR tumor; type: in vivo, BALB/c nude mice; settings: mouse, iv, 0.74 MBq, xenograft-bearing nude mice, i.v., read-out: Biodistribution, T(PC9GR)
Protocol: as §1, §2

PC9GR tumor = assay: as above; type: in vivo, BALB/c nude mice; settings: biodistribution, tumor-bearing mice
Protocol: as §1, §2

[4] = Biodistribution in xenograft-bearing nude mice, PC9 tumor; type: in vivo, BALB/c nude mice; settings: mouse, tumor (PC9), iv, 0.74 MBq, xenograft-bearing nude mice, i.v., read-out: Biodistribution, T(PC9)
Protocol: as §1, §2

PC9 tumor = assay: as above; type: in vivo, BALB/c nude mice; settings: biodistribution, tumor-bearing mice
Protocol: as §1, §2

[5] = blood, read-out: Biodistribution, Blood
[6] = bone, read-out: Biodistribution, Bone
[7] = brain, read-out: Biodistribution, Brain
[8] = heart, read-out: Biodistribution, Heart
[9] = intestine, read-out: Biodistribution, Intestine
[10] = kidney, read-out: Biodistribution, Kidney
[11] = liver, read-out: Biodistribution, Liver
[12] = lung, read-out: Biodistribution, Lung
[13] = muscle, read-out: Biodistribution, Muscle
[14] = skin, read-out: Biodistribution, Skin
[15] = spleen, read-out: Biodistribution, Spleen
[16] = stomach, read-out: Biodistribution, Stomach

Which “AUC(0–t)” value [1] does the source give for CC(=O)N[C@H]1CSSC[C@@H](C(=O)NCCNC(=O)c2ccc(NN)nc2)NC(=O)[C@H](C(C)C)NC(=O)[C@H](C)NC(=O)[C@H](Cc2c[nH]cn2)NC1=O [^99mTc-HYNIC-ADH-1, metal not drawn] here?
Its value is 0.0593 µg·min/L.

And the “AUC(0–∞)” value [1]?
Its value is 0.0595 µg·min/L.

And the K10 [1]?
Its K10 is 0.0815 min⁻¹.

What about the K12 [1] of the same compound?
The K12 was 0.1511 min⁻¹.

And the K21 [1]?
The K21 was 0.0794 min⁻¹.

What about the V1 [1] of the same compound?
Its V1 is 68.753 L/kg.

And the T1/2α ([1]; two-compartment model)?
Its T1/2α is 2.3925 min.

What about the half-life ([1]; mouse, blood, iv, 0.74 MBq, two-compartment model, read-out: T1/2β) of the same compound?
The half-life was 31 min.

What about the tissue uptake at 0.5 h [2, 5] of the same compound?
The tissue uptake at 0.5 h was 1.35 ± 0.18 %ID/g.

What about the tissue uptake at 1 h [2, 5] of the same compound?
Its tissue uptake at 1 h is 0.84 ± 0.03 %ID/g.

What about the tissue uptake at 2 h [2, 5] of the same compound?
The tissue uptake at 2 h was 0.49 ± 0.05 %ID/g.

And the tissue uptake at 4 h [2, 5]?
Its tissue uptake at 4 h is 0.48 ± 0.2 %ID/g.

And the tissue uptake at 0.5 h [2, 6]?
The tissue uptake at 0.5 h was 0.46 ± 0.03 %ID/g.

What about the tissue uptake at 1 h [2, 6] of the same compound?
Its tissue uptake at 1 h is 0.37 ± 0.04 %ID/g.

What about the tissue uptake at 2 h [2, 6] of the same compound?
Its tissue uptake at 2 h is 0.26 ± 0.04 %ID/g.

What about the tissue uptake at 4 h [2, 6] of the same compound?
Its tissue uptake at 4 h is 0.21 ± 0.01 %ID/g.

What about the tissue uptake at 0.5 h [2, 7] of the same compound?
Its tissue uptake at 0.5 h is 0.05 ± 0.01 %ID/g.

What about the tissue uptake at 1 h [2, 7] of the same compound?
The tissue uptake at 1 h was 0.07 ± 0.01 %ID/g.

And the tissue uptake at 2 h [2, 7]?
The tissue uptake at 2 h was 0.05 %ID/g.

What about the tissue uptake at 4 h [2, 7] of the same compound?
The tissue uptake at 4 h was 0.03 %ID/g.

What about the tissue uptake at 0.5 h [2, 8] of the same compound?
The tissue uptake at 0.5 h was 0.57 ± 0.03 %ID/g.

What about the tissue uptake at 1 h [2, 8] of the same compound?
The tissue uptake at 1 h was 0.42 ± 0.08 %ID/g.

What about the tissue uptake at 2 h [2, 8] of the same compound?
The tissue uptake at 2 h was 0.28 ± 0.01 %ID/g.

And the tissue uptake at 4 h [2, 8]?
Its tissue uptake at 4 h is 0.23 ± 0.01 %ID/g.

What about the tissue uptake at 0.5 h [2, 9] of the same compound?
The tissue uptake at 0.5 h was 0.43 ± 0.03 %ID/g.

What about the tissue uptake at 1 h [2, 9] of the same compound?
The tissue uptake at 1 h was 1.38 ± 1.01 %ID/g.

What about the tissue uptake at 2 h [2, 9] of the same compound?
Its tissue uptake at 2 h is 0.58 ± 0.12 %ID/g.

And the tissue uptake at 4 h [2, 9]?
Its tissue uptake at 4 h is 0.88 ± 0.38 %ID/g.

What about the tissue uptake at 0.5 h [2, 10] of the same compound?
Its tissue uptake at 0.5 h is 3.77 ± 1 %ID/g.

What about the tissue uptake at 1 h [2, 10] of the same compound?
Its tissue uptake at 1 h is 2.85 ± 0.54 %ID/g.

And the tissue uptake at 2 h [2, 10]?
Its tissue uptake at 2 h is 3.13 ± 0.7 %ID/g.

And the tissue uptake at 4 h [2, 10]?
Its tissue uptake at 4 h is 3.13 ± 0.54 %ID/g.

What about the tissue uptake at 0.5 h [2, 11] of the same compound?
The tissue uptake at 0.5 h was 0.76 ± 0.06 %ID/g.

And the tissue uptake at 1 h [2, 11]?
The tissue uptake at 1 h was 0.66 ± 0.06 %ID/g.

What about the tissue uptake at 2 h [2, 11] of the same compound?
The tissue uptake at 2 h was 0.59 ± 0.01 %ID/g.

And the tissue uptake at 4 h [2, 11]?
Its tissue uptake at 4 h is 0.55 ± 0.1 %ID/g.

And the tissue uptake at 0.5 h [2, 12]?
Its tissue uptake at 0.5 h is 1.5 ± 0.04 %ID/g.

And the tissue uptake at 1 h [2, 12]?
Its tissue uptake at 1 h is 1.2 ± 0.16 %ID/g.

What about the tissue uptake at 2 h [2, 12] of the same compound?
The tissue uptake at 2 h was 0.68 ± 0.11 %ID/g.

What about the tissue uptake at 4 h [2, 12] of the same compound?
Its tissue uptake at 4 h is 0.56 ± 0.08 %ID/g.

And the tissue uptake at 0.5 h [2, 13]?
The tissue uptake at 0.5 h was 0.5 ± 0.47 %ID/g.

And the tissue uptake at 1 h [2, 13]?
Its tissue uptake at 1 h is 0.47 ± 0.1 %ID/g.

And the tissue uptake at 2 h [2, 13]?
Its tissue uptake at 2 h is 0.24 ± 0.01 %ID/g.

And the tissue uptake at 4 h [2, 13]?
Its tissue uptake at 4 h is 0.25 ± 0.04 %ID/g.

What about the tissue uptake at 0.5 h [2, 14] of the same compound?
Its tissue uptake at 0.5 h is 1.22 ± 0.05 %ID/g.

And the tissue uptake at 1 h [2, 14]?
The tissue uptake at 1 h was 1.33 ± 0.33 %ID/g.

What about the tissue uptake at 2 h [2, 14] of the same compound?
The tissue uptake at 2 h was 1.21 ± 0.44 %ID/g.

And the tissue uptake at 4 h [2, 14]?
Its tissue uptake at 4 h is 1.73 ± 0.08 %ID/g.

And the tissue uptake at 0.5 h [2, 15]?
The tissue uptake at 0.5 h was 0.35 ± 0.03 %ID/g.

And the tissue uptake at 1 h [2, 15]?
The tissue uptake at 1 h was 0.27 ± 0.02 %ID/g.

What about the tissue uptake at 2 h [2, 15] of the same compound?
Its tissue uptake at 2 h is 0.22 ± 0.02 %ID/g.

And the tissue uptake at 4 h [2, 15]?
Its tissue uptake at 4 h is 0.2 ± 0.01 %ID/g.

What about the tissue uptake at 0.5 h [2, 16] of the same compound?
Its tissue uptake at 0.5 h is 1.16 ± 0.18 %ID/g.

What about the tissue uptake at 1 h [2, 16] of the same compound?
The tissue uptake at 1 h was 0.78 ± 0.32 %ID/g.

What about the tissue uptake at 2 h [2, 16] of the same compound?
Its tissue uptake at 2 h is 0.73 ± 0.31 %ID/g.

And the tissue uptake at 4 h [2, 16]?
Its tissue uptake at 4 h is 0.69 ± 0.29 %ID/g.

What about the tissue uptake at 2 h ([3]; tumor (PC9GR), 120 min) of the same compound?
The tissue uptake at 2 h was 1.32 ± 0.08 %ID/g.

And the tissue uptake at 0.5 h ([3]; tumor, 30 min)?
The tissue uptake at 0.5 h was 1.09 ± 0.15 %ID/g.

And the tissue uptake at 1 h ([3]; tumor, 60 min)?
The tissue uptake at 1 h was 1.26 ± 0.1 %ID/g.

What about the tissue uptake at 4 h ([3]; tumor, 240 min) of the same compound?
Its tissue uptake at 4 h is 0.75 ± 0.19 %ID/g.

What about the “T/NT PC9GR/Kidney” value (PC9GR tumor; 30 min) of the same compound?
Its value is 0.42 ± 0.10.

And the “T/NT PC9GR/Liver” value (PC9GR tumor; 30 min)?
Its value is 1.64 ± 0.24.

What about the “T/NT PC9GR/Muscle” value (PC9GR tumor; 30 min) of the same compound?
The value was 2.41 ± 0.12.

And the “T/NT PC9GR/Kidney” value (PC9GR tumor; 1 h)?
Its value is 0.27 ± 0.04.

What about the “T/NT PC9GR/Liver” value (PC9GR tumor; 1 h) of the same compound?
The value was 1.58 ± 0.12.

And the “T/NT PC9GR/Muscle” value (PC9GR tumor; 1 h)?
The value was 2.64 ± 0.47.

And the “T/NT PC9GR/Kidney” value (PC9GR tumor; 2 h)?
The value was 0.49 ± 0.20.

And the “T/NT PC9GR/Liver” value (PC9GR tumor; 2 h)?
The value was 2.14 ± 0.69.

And the “T/NT PC9GR/Muscle” value (PC9GR tumor; 2 h)?
Its value is 5.19 ± 1.89.

And the “T/NT PC9GR/Kidney” value (PC9GR tumor; 4 h)?
Its value is 0.26 ± 0.13.

And the “T/NT PC9GR/Liver” value (PC9GR tumor; 4 h)?
Its value is 1.36 ± 0.69.

And the “T/NT PC9GR/Muscle” value (PC9GR tumor; 4 h)?
Its value is 3.62 ± 1.92.

And the tissue uptake at 0.5 h ([4]; 30 min)?
Its tissue uptake at 0.5 h is 0.99 ± 0.15 %ID/g.

And the tissue uptake at 1 h ([4]; 60 min)?
The tissue uptake at 1 h was 0.91 ± 0.03 %ID/g.

What about the tissue uptake at 2 h ([4]; 120 min) of the same compound?
Its tissue uptake at 2 h is 0.79 ± 0.06 %ID/g.

What about the tissue uptake at 4 h ([4]; 240 min) of the same compound?
Its tissue uptake at 4 h is 0.64 ± 0.16 %ID/g.

What about the “T/NT PC9/Kidney” value (PC9 tumor; 30 min) of the same compound?
The value was 0.27 ± 0.06.

What about the “T/NT PC9/Liver” value (PC9 tumor; 30 min) of the same compound?
Its value is 1.36 ± 0.15.

And the “T/NT PC9/Muscle” value (PC9 tumor; 30 min)?
Its value is 1.97 ± 0.21.

And the “T/NT PC9/Kidney” value (PC9 tumor; 1 h)?
Its value is 0.27 ± 0.03.

What about the “T/NT PC9/Liver” value (PC9 tumor; 1 h) of the same compound?
Its value is 1.58 ± 0.06.

And the “T/NT PC9/Muscle” value (PC9 tumor; 1 h)?
Its value is 2.59 ± 0.34.

What about the “T/NT PC9/Kidney” value (PC9 tumor; 2 h) of the same compound?
Its value is 0.26 ± 0.06.

And the “T/NT PC9/Liver” value (PC9 tumor; 2 h)?
The value was 1.41 ± 0.21.

What about the “T/NT PC9/Muscle” value (PC9 tumor; 2 h) of the same compound?
The value was 3.36 ± 0.08.

And the “T/NT PC9/Kidney” value (PC9 tumor; 4 h)?
Its value is 0.25 ± 0.02.

And the “T/NT PC9/Liver” value (PC9 tumor; 4 h)?
Its value is 1.01 ± 0.31.

What about the “T/NT PC9/Muscle” value (PC9 tumor; 4 h) of the same compound?
The value was 2.78 ± 0.28.
